The results in this text go back to paper doi:10.1101/2020.09.01.277863.

The target of the assay is HalM2, class II lanthipeptide synthetase (wild type) (Bacillus halodurans). In words: native MS.

Turning to HalA2 precursor peptide (full-length), the Kd was determined as 2400 nM and the stoichiometry N amounted to 1.

For orientation: Kd means the equilibrium constant for the complex coming apart. For orientation: stoichiometry N means the number of molecules, sites or subunits per partner or assembly.
